Molecular target: T1, CD229 hDI/DIII/DIV mDII (human; mouse, UniProt Q9HBG7 48-158; Q01965 159-249; Q9HBG7 251-655, limits assumed)
T1 construct: domain: DI;domain: DII;domain: DIII/DIV; Expressed on transiently transfected COS cells; also called chimeric mouse human molecule where the second Ig domain of Ly9 was substituted the corresponding mouse domain
T1 sequence (looked up): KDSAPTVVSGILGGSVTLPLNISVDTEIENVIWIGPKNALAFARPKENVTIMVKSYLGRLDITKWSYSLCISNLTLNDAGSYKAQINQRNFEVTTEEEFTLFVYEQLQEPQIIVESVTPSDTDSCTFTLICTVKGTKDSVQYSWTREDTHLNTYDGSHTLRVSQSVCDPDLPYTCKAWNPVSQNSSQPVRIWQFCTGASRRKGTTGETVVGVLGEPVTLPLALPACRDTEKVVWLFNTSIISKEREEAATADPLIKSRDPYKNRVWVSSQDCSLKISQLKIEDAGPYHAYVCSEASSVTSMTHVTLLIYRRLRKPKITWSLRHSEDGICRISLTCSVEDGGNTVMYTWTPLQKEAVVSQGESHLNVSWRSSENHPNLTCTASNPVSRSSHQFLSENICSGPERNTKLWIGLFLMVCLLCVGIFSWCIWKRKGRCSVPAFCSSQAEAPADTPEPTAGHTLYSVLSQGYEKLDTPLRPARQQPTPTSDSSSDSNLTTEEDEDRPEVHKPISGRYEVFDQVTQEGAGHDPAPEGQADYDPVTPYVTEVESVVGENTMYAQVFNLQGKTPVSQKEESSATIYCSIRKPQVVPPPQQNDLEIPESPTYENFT
Assay: flow cytometry on transiently transfected COS cells
Source text: The mapping to the first or second domain was done as described in Romero et al 2005. Three different human Ly9 constructs were used: full-length human Ly9, a Ly9 isoform that […] and a chimeric mouse human molecule where the second Ig domain of Ly9 was substituted the corresponding mouse domain. The transfected cells were stained with different anti-human antibodies using flow cytometry.
^aCOS cells were transiently transfected with chimeric human (h)/mouse (m) constructs or the isoform lacking the first V-like Ig domain (CD229 ΔDI) described in Materials and Methods. CD229 mAbs were assayed by flow cytometry: +, Detection of protein expression, −, nondetection of protein expression. ^bDomain recognized by the mAb.

binding result: no binding
B1: HLy9.1.84 (antibody, V domains shown)
VH: QMQLQESGPELVKPGASVKISCKASGYTFTHYYINWVQQRPGQGLEWIGWIFPESGSTYYSEKFKAKATLTVDKSSSTAYMLLSSLTSEDSAVYFCARGTGFFDYWGQGTTLTVSS
VL: QIVLTQSPAIMSASPGEKVTVTCSASSSVSYMFWYQQKPGFSPRLLIYDTSNLASGVPVRFSGSGSGTSYSLTISRMEAEDAATYYCQQWSSYPPTFGGGTKLEIK
notes: also called HLy91.184

Source: patent US20260201032A1 (UNIVERSITAT DE BARCELONA, published 2026)
